Data on six molecules can be found in PMC7017424, “Effects of Substrate-Binding Site Residues on the Biochemical Properties of a Tau Class Glutathione S-Transferase from Oryza sativa” (Genes, 2019).

One data set addresses T1, OsGSTU17 (Oryza sativa, UniProt Q93WY5).
T1 construct: about 25 kDa subunit; dimeric enzyme; mutants L112A and W165A expressed at 20 °C
T1 sequence (Q93WY5 1-223): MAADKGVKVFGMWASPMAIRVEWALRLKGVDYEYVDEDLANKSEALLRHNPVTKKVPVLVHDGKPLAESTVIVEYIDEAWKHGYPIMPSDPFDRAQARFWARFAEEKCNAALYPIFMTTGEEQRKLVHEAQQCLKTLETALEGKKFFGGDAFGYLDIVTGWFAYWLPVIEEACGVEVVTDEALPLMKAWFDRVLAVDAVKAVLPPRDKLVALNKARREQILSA
The data set can be described thus: absorbance at […] nm, initial rate […] s, non-linear regression (Hyper32). The class given is biochemical. The settings on record: 1.0 mM GSH fixed, NBD-Cl 0.1-1.0 mM, 25 °C; apparent Km; wild-type value 'detected again', obtained from Yang et al. [31]; read-out: NBD-Cl / K m /; cited from earlier work.

Substrate in the data set “purified protein”: O=[N+]([O-])c1ccc(Cl)c2nonc12
The data set can be described thus: purified protein. The class given is biochemical, Oryza sativa. The settings on record: 1.0 mM GSH fixed, NBD-Cl 0.1-1.0 mM, 25 °C, apparent Km.

Changes are numbered by the printed parent chain. Names and notes keep the numbering of the source.

Regarding `O=[N+]([O-])c1ccc(Cl)c2nonc12` [NBD-Cl, 7-chloro-4-nitrobenzo-2-oxa-1,3-diazole], the Km at OsGSTU17 is 324 ± 16 µM.

B1: OsGSTU17 (Oryza sativa Japonica Group; W161A) (protein)
chain: T1 sequence (Q93WY5 1-223) with W161A
notes: about 25 kDa subunit; dimeric enzyme; mutants L112A and W165A expressed at 20 °C
For orientation: Vmax means the rate approached at saturating substrate. By kcat is commonly meant the number of substrate molecules converted per active site and unit of time at saturation. What is called kcat/Km is the second-order rate constant that governs catalysis at low substrate concentration. In the case of B1, in the data set “purified protein” (Km above tested range), the Km came to 1117 ± 22 µM, the Vmax came to 0.594 µM/min/mg, the kcat turned out to be 0.999 s⁻¹ and the kcat/Km was 894 M⁻¹ s⁻¹.

B2: OsGSTU17 (Oryza sativa Japonica Group; N109A) (protein)
chain: T1 sequence (Q93WY5 1-223) with N109A
notes: as for B1
For B2, in the data set “purified protein”, the Km was 781 ± 34 µM, the Vmax is 0.364 µM/min/mg, the kcat is 0.266 s⁻¹ and the kcat/Km was determined as 341 M⁻¹ s⁻¹.

B3: OsGSTU17 (Oryza sativa Japonica Group; F162A) (protein)
chain: T1 sequence (Q93WY5 1-223) with F162A
notes: as for B1
On to B3, for which, in the data set “purified protein” (Km above tested range), the Km came out at 3866 ± 871 µM, the Vmax was determined as 0.869 µM/min/mg, the kcat was 1.57 s⁻¹ and the kcat/Km was found to be 407 M⁻¹ s⁻¹.

B4: OsGSTU17 (Oryza sativa Japonica Group; M17A) (protein)
chain: T1 sequence (Q93WY5 1-223) with M17A
notes: as for B1
Turning to B4, in “purified protein” (Km above tested range), the Km was determined as 3661 ± 843 µM, the Vmax is 0.83 µM/min/mg, the kcat was 0.809 s⁻¹ and the kcat/Km amounted to 221 M⁻¹ s⁻¹.

B5: OsGSTU17 (Oryza sativa Japonica Group; L112A) (protein)
chain: T1 sequence (Q93WY5 1-223) with L112A
notes: as for B1
As for B5, in the data set “purified protein” (Km above tested range), the Km was found to be 1487 ± 79 µM, the Vmax is 0.896 µM/min/mg, the catalytic constant (kcat) was determined as 1.75 s⁻¹ and the kcat/Km is 1180 M⁻¹ s⁻¹.
